The text below walks through data of patent US11352401.

This test addresses T1, HLA-A*01 (human).
T1 construct: MHC monomer made peptide-receptive by UV cleavage of a UV-sensitive ligand; also called peptide-receptive MHC class I monomer
Nature of the test: UV peptide-exchange ELISA; ++++ = yield >75%. An excerpt:
Candidate peptides for T cell based therapies according to the present invention were further tested for their MHC binding capacity (affinity). The individual peptide-MHC complexes were produced by UV-ligand exchange, where a UV-sensitive peptide is cleaved upon UV-irradiation, and exchanged with the peptide of interest as analyzed. Only peptide candidates that can effectively bind and stabilize the peptide-receptive MHC molecules prevent dissociation of the MHC complexes. To determine the yield of the exchange reaction, an ELISA was performed based on the detection of the light chain (β2m) of stabilized MHC complexes. The assay was performed as generally described in Rodenko et al. (Rodenko et al., 2006).
96 well MAXISorp plates (NUNC) were coated over night with 2 ug/ml streptavidin in PBS at room temperature, washed 4× and blocked for 1 h at 37° C. in 2% BSA containing blocking buffer. […] Peptide-MHC monomers of the UV-exchange reaction were diluted 100-fold in blocking buffer. Samples were incubated for 1 h at 37° C., washed four times, incubated with 2 ug/ml HRP conjugated anti-β2m for 1h at 37° C., washed again and detected with TMB solution that is stopped with […]. Absorption was measured at 450 nm.
As for YVDAVLGKGHQY [YVDAVLGKGHQY (SEQ ID NO: 452)], the peptide exchange yield was above 75%. For GTELLSLVY [GTELLSLVY (SEQ ID NO: 150)], the peptide exchange yield was above 75%. In turn, QTDHPQPILDRY [QTDHPQPILDRY (SEQ ID NO: 168)] showed a peptide exchange yield above 75%. On to SADDIRGIQSLY [SADDIRGIQSLY (SEQ ID NO: 174)], for which the peptide exchange yield was above 75%. QTETGTPYMLY [QTETGTPYMLY (SEQ ID NO: 436)] came in with a peptide exchange yield above 75%. Take NSELSCQLY [NSELSCQLY (SEQ ID NO: 428)]: the peptide exchange yield was above 75%.

As to QTDDTWRTEY [QTDDTWRTEY (SEQ ID NO: 435)], the peptide exchange yield was above 75%. The molecule YSDSLVQKGY [YSDSLVQKGY (SEQ ID NO: 451)] showed a peptide exchange yield above 75%. Molecule DSDSCHFNY [DSDSCHFNY (SEQ ID NO: 138)] yielded a peptide exchange yield above 75%. Molecule GTEFTTILY [GTEFTTILY (SEQ ID NO: 148)] displayed a peptide exchange yield above 75%. The molecule GTEFTTVLY [GTEFTTVLY (SEQ ID NO: 149)] had a peptide exchange yield above 75%. Molecule RTEFNLNQY [RTEFNLNQY (SEQ ID NO: 173)] came in with a peptide exchange yield above 75%.

The molecule LLEDKHFQSY [LLEDKHFQSY (SEQ ID NO: 417)] showed a peptide exchange yield above 75%.

The molecule NTEDSSMSGYLY [NTEDSSMSGYLY (SEQ ID NO: 429)] displayed a peptide exchange yield above 75%. The molecule TTDFPSESSFEY [TTDFPSESSFEY (SEQ ID NO: 443)] had a peptide exchange yield above 75%. On to LLDTAQKNLY [LLDTAQKNLY (SEQ ID NO: 416)], for which the peptide exchange yield is above 75%. Turning to FVDPLVTNY [FVDPLVTNY (SEQ ID NO: 409)], the peptide exchange yield was above 75%. On to RSDPVTLNVLY [RSDPVTLNVLY (SEQ ID NO: 171)], for which the peptide exchange yield is above 75%. As for FSDNDKLYLY [FSDNDKLYLY (SEQ ID NO: 407)], the figure is above 75%. In turn, NTSDMMGRMSY [NTSDMMGRMSY (SEQ ID NO: 431)] yielded a peptide exchange yield above 75%. As for YLDRGTGNVSFY [YLDRGTGNVSFY (SEQ ID NO: 449)], the figure is above 75%; as for YSDDGQKWTVY [YSDDGQKWTVY (SEQ ID NO: 450)], above 75%; as for GTVYEDLRY [GTVYEDLRY (SEQ ID NO: 411)], above 75%. As for LSDLLKQGY [LSDLLKQGY (SEQ ID NO: 158)], the figure is above 75%; as for TSDFSRFTNY [TSDFSRFTNY (SEQ ID NO: 442)], above 75%.

On to STDGKHWWEY [STDGKHWWEY (SEQ ID NO: 437)], for which the peptide exchange yield was above 75%. In turn, LTEDKETLQY [LTEDKETLQY (SEQ ID NO: 420)] returned a peptide exchange yield above 75%. As for ASEDSVLLY [ASEDSVLLY (SEQ ID NO: 135)], the figure is above 75%; as for LSDTSVIQFY [LSDTSVIQFY (SEQ ID NO: 159)], above 75%; as for LLDPNPHMY [LLDPNPHMY (SEQ ID NO: 155)], above 75%. As for AAEIGDKSWLY [AAEIGDKSWLY (SEQ ID NO: 134)], the figure is above 75%; as for ATSKFMEFY [ATSKFMEFY (SEQ ID NO: 137)], above 75%; as for NSDEQKITEMVY [NSDEQKITEMVY (SEQ ID NO: 427)], above 75%.

As for LMDRPIFY [LMDRPIFY (SEQ ID NO: 157)], the peptide exchange yield is above 75%.

QIDTGENLY [QIDTGENLY (SEQ ID NO: 433)] registered a peptide exchange yield above 75%.

For RSDDTAVYY [RSDDTAVYY (SEQ ID NO: 170)], the peptide exchange yield was above 75%.

In turn, ISDRYYTALY [ISDRYYTALY (SEQ ID NO: 413)] displayed a peptide exchange yield above 75%. LSELKPMSY [LSELKPMSY (SEQ ID NO: 419)] had a peptide exchange yield above 75%.

In the case of ILDEVIMGY [ILDEVIMGY (SEQ ID NO: 412)], the peptide exchange yield is above 75%. Molecule VTAQVVGTERY [VTAQVVGTERY (SEQ ID NO: 446)] returned a peptide exchange yield above 75%.

NLDAVHDITVAY [NLDAVHDITVAY (SEQ ID NO: 423)] returned a peptide exchange yield above 75%. Molecule LTELLERAAFY [LTELLERAAFY (SEQ ID NO: 421)] showed a peptide exchange yield above 75%. The molecule RLDTPLYFSY [RLDTPLYFSY (SEQ ID NO: 169)] came in with a peptide exchange yield above 75%. As for GSDHQSPSSSSY [GSDHQSPSSSSY (SEQ ID NO: 410)], the figure is above 75%. As for NTEGLHHLY [NTEGLHHLY (SEQ ID NO: 430)], the peptide exchange yield was above 75%. As for QTDCAPNNGY [QTDCAPNNGY (SEQ ID NO: 434)], the peptide exchange yield was above 75%.

As for MIDVTKSYY [MIDVTKSYY (SEQ ID NO: 422)], the peptide exchange yield is above 75%.

NLDIIQQEY [NLDIIQQEY (SEQ ID NO: 425)] registered a peptide exchange yield above 75%. On to TLDSALNAASYY [TLDSALNAASYY (SEQ ID NO: 441)], for which the peptide exchange yield is above 75%.
